Source: patent publication US20100254992A1

Molecular target: HuMCP-1-His6 Mutant-6 (66D → 66K) (human) (UniProt P13500)
Assay: Biacore, CNTO 888 captured, MCP-1-His6 in solution

Sequence of HuMCP-1-His6 Mutant-6 (66D → 66K) (human) (P13500 other isoform, or with tags, fused parts or gaps mutant, form in doubt): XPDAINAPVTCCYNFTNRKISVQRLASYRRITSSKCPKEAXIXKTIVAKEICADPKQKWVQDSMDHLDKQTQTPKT

Kd: 0.037 nM
koff: 0.000186 s⁻¹
kon: 5.09e+06 M⁻¹ s⁻¹
Substance: CNTO 888 (antibody)
